Results reported in patent US20160039934A1 (AFFIRMED, published 2016).

Tests used:
EGFRvIII = EGFRvIII (UniProt P00533 25-1210); assay: cell-based or functional assay
human CD3 [1] = target: T1, human CD3 (human, UniProt P07766 23-207); assay: flow cytometry on Jurkat cells, non-linear regression (rounded restatement of the FIG. 3 value)
T1 construct: whole, on cells; CD3 is a multi-chain complex; also called CD3 on human CD3+ Jurkat cells; CD3+ human T cell line (Jurkat)
Description: (§1) Cell-surface bound tandem diabody was detected by anti-His mAb followed by FITC-conjugated goat anti-mouse IgG. To calculate KD, mean fluorescence intensities determined by flow cytometry were modeled as sigmoidal dose-response by non-linear regression.
(§2) FIGS. 3A and 3B present binding of titrated tandem diabodies TandAb D, containing var_y, and TandAb E (SEQ ID NO:12), containing var_z, to a CD3⁺ human T cell line (Jurkat) and a CD3⁺ cynomolgus cell line (HSC-F), as determined by flow cytometric analysis.

cynomolgus CD3 = target: T2, cynomolgus CD3 (cynomolgus, UniProt Q95LI5 22-198); assay: flow cytometry on cynomolgus CD3+ HSC-F cells, anti-His mAb and FITC goat anti-mouse IgG, non-linear regression of MFI
T2 construct: whole, on cells; CD3 is a multi-chain complex; also called CD3 on cynomolgus CD3+ HSC-F cells; cynomolgus CD3-expressing cell line (HSC-F)
Description: as §1, §2

human CD3 [2] = target: T1, human CD3; assay: flow cytometry on Jurkat cells; reference TandAb E
Description: as §1, §2

human CD3 [3] = target: T1, human CD3; assay: flow cytometry on human CD3+ Jurkat cells, anti-His mAb and FITC goat anti-mouse IgG, non-linear regression of MFI
Description: as §1, §2

T1 sequence (P07766 23-207): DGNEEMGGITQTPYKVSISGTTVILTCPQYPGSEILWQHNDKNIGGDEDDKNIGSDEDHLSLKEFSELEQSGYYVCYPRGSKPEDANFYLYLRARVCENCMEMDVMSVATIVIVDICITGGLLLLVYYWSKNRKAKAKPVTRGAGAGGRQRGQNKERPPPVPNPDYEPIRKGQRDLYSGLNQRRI
T2 sequence (Q95LI5 22-198): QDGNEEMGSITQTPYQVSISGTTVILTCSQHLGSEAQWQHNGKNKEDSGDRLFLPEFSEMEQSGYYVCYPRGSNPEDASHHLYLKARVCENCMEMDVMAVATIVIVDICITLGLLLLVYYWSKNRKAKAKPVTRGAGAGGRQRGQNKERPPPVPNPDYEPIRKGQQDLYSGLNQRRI

| Kd (human CD3 [1]) [nM] | Kd (cynomolgus CD3) [nM] | fold higher affinity than TandAb E (human CD3 [2]) [fold] | Kd (human CD3 [3]) [nM] | Binder | EC50, 4 h calcein release cytotoxicity assay (EGFRvIII) [nM] |
| --- | --- | --- | --- | --- | --- |
|  |  |  |  | TandAb G (SEQ ID NO:14) (bispecific antibody) DIQMTQSPSSLSASVGDRVTITCRSSTGAVTTSNYANWVQQKPGKAPKGLIGGTNKRAPGVPSRFSGSLIGDKATLTISSLQPEDFATYYCALWYSNLWVFGQGTKVEIKGGSGGSEVQLVQSGAEVKKPGESLKISCKGSGYSFTSYWIGWVRQMPGKGLEWMGIIYPGDSDTRYSPSFQGQVTISADKSISTAYLQWSSLKASDTAMYYCARLGSSWTNDAFDIWGQGTMVTVSSGGSGGSSYELTQPPSVSVSPGQTARITCSGDALPKQYAYWYQQKPGQAPVLVIYKDSERPSGIPERFSGSSSGTTVTLTISGVQAEDEADYYCQSADSSGTPLIVFGTGTKLTVLGGSGGSEVQLVESGGGLVQPGGSLRLSCAASGFTFSTYAMNWVRQAPGKGLEWVGRIRSKYNNYATYYADSVKDRFTISRDDSKNSLYLQMNSLKTEDTAVYYCARHGNFGNSYVSWFAYWGQGTLVTVSSAAAGSHHHHHH | 0.129 |
| 1.8 | 3.4 | > 10 | 1.82 | TandAb D (var_y) (SEQ ID NO:11) (bispecific antibody, Homodimeric tandem diabody; Detected by anti-His mAb) DIQMTQSPSSLSASVGDRVTITCRSSTGAVTTSNYANWVQQKPGKAPKALIGGTNKRAPGVPSRFSGSLIGDKATLTISSLQPEDFATYYCALWYSNLWVFGQGTKVEIKGGSGGSEVQLVQSGAEVKKPGESLKISCKGSGYSFTSYWIGWVRQMPGKGLEWMGIIYPGDSDTRYSPSFQGQVTISADKSISTAYLQWSSLKASDTAMYYCARLGSSWTNDAFDIWGQGTMVTVSSGGSGGSSYELTQPPSVSVSPGQTARITCSGDALPKQYAYWYQQKPGQAPVLVIYKDSERPSGIPERFSGSSSGTTVTLTISGVQAEDEADYYCQSADSSGTPLIVFGTGTKLTVLGGSGGSEVQLVESGGGLVQPGGSLRLSCAASGFTFSTYAMNWVRQAPGKGLEWVGRIRSKYNNYATYYADSVKDRFTISRDDSKNSLYLQMNSLKTEDTAVYYCARHGNFGNSYVSYFAYWGQGTLVTVSSAAAGSHHHHHH | 0.122 |
| 27.7 | 24.3 |  | 27.7 | TandAb E (var_z) (SEQ ID NO:12) (bispecific antibody, Homodimeric tandem diabody; Detected by anti-His mAb) DIQMTQSPSSLSASVGDRVTITCRSSTGAVTTSNYANWVQQKPGKAPKGLIGGTNKRAPGVPSRFSGSLIGDKATLTISSLQPEDFATYYCALWYSNLWVFGQGTKVEIKGGSGGSEVQLVQSGAEVKKPGESLKISCKGSGYSFTSYWIGWVRQMPGKGLEWMGIIYPGDSDTRYSPSFQGQVTISADKSISTAYLQWSSLKASDTAMYYCARLGSSWTNDAFDIWGQGTMVTVSSGGSGGSSYELTQPPSVSVSPGQTARITCSGDALPKQYAYWYQQKPGQAPVLVIYKDSERPSGIPERFSGSSSGTTVTLTISGVQAEDEADYYCQSADSSGTPLIVFGTGTKLTVLGGSGGSEVQLVESGGGLVQPGGSLRLSCAASGFTFSTYAMNWVRQAPGKGLEWVGRIRSKYNNYATYYADSVKDRFTISRDDSKNSLYLQMNSLKTEDTAVYYCARHGNFGNSYVSHFAYWGQGTLVTVSSAAAGSHHHHHH |  |
